This is an account of results in patent US12576154B2, “Conjugates of PSMA-binding moieties with cytotoxic agents” (PHILOCHEM AG, priority 2022, dated 2026).

Data set [1] concerns HT1080.hPSMA tumor. The experiment in a line: MMAE release at different time points in HT1080.hPSMA tumor model (Conjugate 7 vs Conjugate 1). It is filed as in vivo, mice. Here is the method:
HT1080.hPSMA tumor cells were grown to 90% confluence and detached with Trypsin-EDTA 0.05%. Cells were resuspended in Hank's Balanced Salt Solution (HBSS) at a 5×10^7 cells/mL density. 100 μL of HT1080.hPSMA cells (5×10^6 cells) were injected subcutaneously in the right flank of female athymic Balb/c AnNRj-Foxn1 mice (6 to 8 weeks of age). Tumors were grown until ˜250 mm^3 volume (average).
0.1 mL of a 50 μM solution (2% DMSO, PBS, 250 nmol/kg) of Conjugate 7 was injected intravenously into the tail vein of the mice. The animals were sacrificed after 6 h, 24 h, 48 h, or 72 h (n=3/group), and blood and the following organs were extracted: HT1080.hPSMA tumor, heart, lungs, liver, kidney, spleen, stomach. The blood fraction was centrifuged, and the plasma (supernatant) was extracted. The organs were stored at −80° C. before being used for further analysis.
Frozen plasma (50 μL) and mouse tissues (˜50 mg) were thawed, and 500 μL of PBS was added. Samples were kept on ice, and 50 μL solution of internal standard (d8-MMAE, 50 nM) was added. Samples were then homogenized at 4° C. with a tissue lyser for 2 minutes at 30 Hz for 4 cycles. After homogenization, samples were centrifuged (21'000 g, 10 min). Subsequently, 100 μL of supernatants were collected and added to 900 μL of acetonitrile (ACN) to induce protein precipitation. After centrifugation (21'000 g, 10 min), 800 μL of supernatants were collected and dried at room temperature with a vacuum centrifuge. Pellets were then resuspended in 20 μL of an aqueous solution containing 3% ACN and 0.1% of HCOOH, and 5 μL were injected into the UHPLC-MS system. […] Peak areas of analytes and internal standards were integrated, and corresponding ratios were calculated. The ratios were then transformed into pmol/g of wet tissue using single-concentration external calibration points and corrected by the total weight of the sample analysed. The percentage of injected dose per gram (% ID/g) was finally calculated by normalizing the value based on the total dose injected into the mouse. […]

The subject of data set [2] is LNCaP tumor (PSMA+). Kind of data set: MMAE release from conjugates in LNCaP tumor model (biodistribution by LC-MS). It is filed as in vivo, mice. Here is the method:
LNCaP tumor cells were grown to 80% confluence and detached with Trypsin-EDTA 0.05%. Cells were resuspended in PBS at a density of 30×10^6 cells/mL. The cell suspension was further diluted 1:1 with Matrigel. 200 μL of LNCaP cells (3×10^6 cells) were injected subcutaneously in the left flank of female athymic Balb/c AnNRj-Foxn1 mice (6 to 8 weeks of age). Tumors were grown until volumes of 200-300 mm^3 were observed.
0.1 ml of 50 μM solutions (2% DMSO, PBS) of the four Conjugates (1-4) were injected intravenously into 4 of the mice (1 mouse per SMDC). The animals were sacrificed after 24 h and the following organs were extracted: blood, LNCaP tumor (PSMA+), heart, lungs, liver, kidney, spleen, stomach. The blood fraction was centrifuged, and the plasma (supernatant) was extracted. The organs were preserved at −80° C. before being used for further analysis.
Frozen plasma or mouse tissues (˜50 mg) were thawed and treated with 600 μL of an aqueous solution containing 95% acetonitrile (ACN), and 0.1% HCOOH were added to induce protein precipitation. 50 μL of a solution of d8-MMAE, 50 nM) was added as internal standard. Samples were then homogenized with a tissue lyser for 15 minutes at 30 Hz. After homogenization, samples were centrifuged (21'000 g for 10 minutes). The supernatant was collected and dried at room temperature with a rotary evaporator. Pellets were then resuspended in 1 mL of an aqueous solution containing 3% ACN and 0.1% of TFA and subsequently purified on Oasis HLB SPE columns. Eluates were dried under vacuum at room temperature. […] Peak areas of analytes and internal standards were integrated, and corresponding ratios were calculated. The ratios were then transformed into pmol/g of wet tissue using single-concentration external calibration points and corrected by the total weight of the sample analysed. The percentage of injected dose per gram (% ID/g) was finally calculated by normalizing the value based on the total dose injected into the mouse. […]

With `CC[C@H](C)[C@@H]([C@@H](CC(=O)N1CCC[C@H]1[C@H](OC)[C@@H](C)C(=O)N[C@H](C)[C@@H](O)c1ccccc1)OC)N(C)C(=O)[C@@H](NC(=O)[C@H](C(C)C)N(C)C(=O)OCc1ccc(NC(=O)[C@@H]2CCCN2C(=O)CNC(=O)CCCCCN2C(=O)CC(SC[C@H](N)C(=O)NCCCCCC(=O)NC[C@H]3CC[C@H](C(=O)N[C@@H](Cc4ccc5ccccc5c4)C(=O)NCCCC[C@H](NC(=O)N[C@@H](CCC(=O)O)C(=O)O)C(=O)O)CC3)C2=O)cc1)C(C)C` (some centres unmarked) [Conjugate 1], the “MMAE release at 6 h” value in data set [1] (6 h after i.v. 250 nmol/kg, n=3) amounted to 200 pmol/g. For the same compound, in data set [1] (24 h after i.v. 250 nmol/kg, n=3), the “MMAE release at highest accumulation point (average)” value is reported as “approx. 300 pmol/g”. The “Time of highest accumulation point of released MMAE” value in data set [1] (i.v. 250 nmol/kg, time points 6, 24, 48, 72 h) came to 24 h. In data set [2] (24 h after intravenous injection, LNCaP tumor model, n=3), the “MMAE release, experiment repeated with three mice each” value was “confirmed”. In data set [2] (24 hours after intravenous injection, 0.1 ml of 50 μM, 1 mouse per SMDC, LNCaP tumor and organs), the “MMAE release (quantitative biodistribution)” value is “Significant release of MMAE”.
